Assay [1] concerns the target T1, human GFRα3 on HEK293/hGFRα3/hRET/SRE-luc cells (human, UniProt O60609 32-382).
T1 sequence: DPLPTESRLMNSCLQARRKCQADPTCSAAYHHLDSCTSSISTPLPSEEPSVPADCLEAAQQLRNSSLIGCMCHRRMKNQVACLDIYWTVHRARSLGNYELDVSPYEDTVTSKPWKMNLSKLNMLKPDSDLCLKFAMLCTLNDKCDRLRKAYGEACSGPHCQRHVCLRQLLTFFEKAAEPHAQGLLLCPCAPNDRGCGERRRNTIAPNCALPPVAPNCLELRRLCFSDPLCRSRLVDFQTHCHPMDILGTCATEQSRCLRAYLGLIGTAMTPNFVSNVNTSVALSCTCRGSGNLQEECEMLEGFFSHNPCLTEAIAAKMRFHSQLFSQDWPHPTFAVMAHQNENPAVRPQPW
Kind of assay: cell-based or functional assay.

For assay [2], the target named is T2, human GFRα3 expressed with a C-terminal hFc tag (human).
T2 construct: also called hGFRα3-hFc
The experiment in a line: blocking ELISA 1, hGFRα3-hFc to coated hARTEMIN-mmH. On the procedure:
(§1) A constant amount of human GFRα3 fused with a C-terminal human Fc tag (hGFRα3-hFc; SEQ ID:371) at 120 pM was pre-mixed with varying amounts of antibodies, ranging from 0 to ˜10 nM in serial dilutions, followed by an 1 hour incubation at room temperature (RT) to allow antibody-hGFRα3-hFc binding to reach equilibrium. The equilibrated sample solutions were then transferred to the hARTEMIN-mmH-coated plate. […] Absorbance was recorded at 450 nm on a Victor X5 plate reader (Perkin Elmer) to determine the amount of free hGFRα3-hFc in the pre-equilibrated hGFRα3-hFc-antibody solutions that was able to bind to the plate coated with hARTEMIN-mmH. IC₅₀ values, defined as the concentration of antibody required to reduce the signal from a constant concentration of hGFRα3-hFc by 50%, were calculated from the data using Prism software from GraphPad. The absorbance measured at the constant amount of 120 pM hGFRα3-hFc in the absence of anti-GFRα3 antibody is defined as 0% blocking and the absorbance with no added hGFRα3-hFc is defined as 100% blocking. The observed absorbance in the wells containing the highest antibody concentration was used to calculate the maximum blocking percent shown in the table.
On the technique in general: In an ELISA, binding on a coated surface is turned into a signal by an enzyme label.

The target in assay [3] is T3, human GFRα3 expressed with a C-terminal myc-myc-hexahistidine tag (human, UniProt O60609 32-374, biotinylated (sites not given) in ELISA format 2 and in the Octet cross-competition; not in SPR).
T3 construct: also called hGFRα3-mmh; hGFRα3-mmH
Kind of assay: blocking ELISA 2, biotin-hGFRα3-mmH to coated hARTEMIN-mmH + hRET-10His. How it is done: as §1, with “The” for “A constant amount of human GFRα3 fused with a C-terminal human Fc tag (hGFRα3-hFc; SEQ ID:371) at 120 pM was pre-mixed with varying amounts of antibodies, ranging from 0 to ˜10 nM in serial dilutions, followed by an 1 hour incubation at room temperature (RT) to allow antibody-hGFRα3-hFc binding to reach equilibrium. The”
In the second ELISA format, the plates, samples and data were processed similarly as for the first format except both hARTEMIN-mmH and human RET with a C-terminal 10 histidine tag (hRET-10His; R&D Systems, #1168-CR/CF) were coated for the blocking ELISA experiment. The 96-well microtiter plates were coated with a mixture of 1.2 ug/ml hARTEMIN-mmH and 6.9 ug/ml hRET-10His proteins in PBS overnight at 4° C. and then blocked with a solution of 0.5% (w/v) BSA. A constant amount of biotinylated human GFRα3 with a C-terminal myc-myc-hexahistidine tag (biotin-hGFRα3-mmH; SEQ ID:370) at 1 nM was pre-mixed with varied amounts of anti-GFRα3 antibodies, ranging from 0 to ˜100 nM in serial dilutions, followed by a 1 hour incubation at RT to allow antibody-biotin-hGFRα3-mmH binding to reach equilibrium. The equilibrated samples were then transferred to the coated plate. After 1 hour of binding, the plate was washed, then the bound biotin-hGFRα3-mmH was detected using HRP conjugated streptavidin (Pierce, #N200), and colorimetric signals were developed using TMB HRP substrates.

In assay [4] the target is T4, cynomolgus GFRα3 on HEK293/MfGFRα3/MfRet/SRE-Luc cells (cynomolgus, UniProt O60609 1-400 (human entry), limits assumed).
T4 chain: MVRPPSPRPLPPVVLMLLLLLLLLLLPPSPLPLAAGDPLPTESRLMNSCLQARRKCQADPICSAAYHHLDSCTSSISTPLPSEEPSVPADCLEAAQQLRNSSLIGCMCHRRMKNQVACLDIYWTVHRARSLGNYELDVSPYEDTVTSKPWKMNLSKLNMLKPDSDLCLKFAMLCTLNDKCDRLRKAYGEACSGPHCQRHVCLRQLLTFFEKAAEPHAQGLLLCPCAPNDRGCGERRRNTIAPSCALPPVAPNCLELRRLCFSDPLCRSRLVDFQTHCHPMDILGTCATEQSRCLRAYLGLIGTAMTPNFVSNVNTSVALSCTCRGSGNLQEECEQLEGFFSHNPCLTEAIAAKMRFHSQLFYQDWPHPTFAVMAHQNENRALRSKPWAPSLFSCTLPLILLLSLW
Kind of assay: cell-based or functional assay.

B1: H4H2210N (antibody, human IgG4, V domains shown)
VH: EVQLLESGGGLVQPGGSLRVSCAASGFTFSTSAMSWVRQAPGKGLEWVSGISGIGGGSTYYADSVKGRFTISRDNSKNTLYLQMNSLRAEDTAVYFCAKFYKWNSYIFDLWGQGTMVTVSS
VL: EIVLTQSPDTLSLSPGERATLSCRASQSVSSSYFAWYQQKPGQAPRLLMYSASSRATGIPDRFSGSGSGTDFSLTISRLEPEDFAVYYCQQYGRSLTFGGGTKVEIK
In the case of B1, the “IC50 (SRE-luc, HEK293/hGFRα3/hRET cells, 100 pM hARTEMIN-mmH)” value in assay [1] is 2.9 nM.

B2: H4H2234N (antibody, human IgG4, V domains shown)
VH: EVQLLESGGGLVQSGGSLRLSCAASGFSFNNYAMSWVRQAPGKGLEWVSFISGSGGSTYYADSVKGRFTISRDNSKNTLYLQMNSLRVEDTAVFYCAKDRYNYGTFFDYWGQGTLVTVSS
VL: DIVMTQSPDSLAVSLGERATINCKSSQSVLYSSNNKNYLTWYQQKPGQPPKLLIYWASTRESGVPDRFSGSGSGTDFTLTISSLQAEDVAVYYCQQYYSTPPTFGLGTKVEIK
notes: human IgG4 Fc (H4H)
Take B2: in assay [2], the “% max blocking” value was determined as 70% and the IC50 was found to be 0.0829 nM. Also, in assay [3], the “% max blocking” value was 97% and the IC50 is 3.42 nM. The “IC50 (SRE-luc, HEK293/hGFRα3/hRET cells, 100 pM hARTEMIN-mmH)” value in assay [1] was 2.3 nM.

B3: recombinant human ARTEMIN protein with a C-terminal myc-myc-hexahistidine tag (ligand)
chain: AGGPGSRARAAGARGCRLRSQLVPVRALGLGHRSDELVRFRFCSGSCRRARSPHDLSLASLLGAGALRPPPGSRPVSQPCCRPTRYEAVSFMDVNSTWRTVDRLSATACGCLGEQKLISEEDLGGEQKLISEEDLHHHHHH
As to B3, the “EC50 of SRE-dependent luciferase activity in HEK293/mfGFRα3/mfRet/SRE-LUC cells” value in assay [4] turned out to be 0.07 nM.

B4: H4H2207N (antibody, human IgG4, V domains shown)
VH: EVQLVESGGGLVQPGRSLRLSCAASGFTFNDYAMHWVRQAPGKGLEWVSGISWNSGNIGYADSVKGRFTISRDNAKNSLYLQMNSLRAEDTALYFCARDTRMATRPFDYWGQGTLVTVSS
VL: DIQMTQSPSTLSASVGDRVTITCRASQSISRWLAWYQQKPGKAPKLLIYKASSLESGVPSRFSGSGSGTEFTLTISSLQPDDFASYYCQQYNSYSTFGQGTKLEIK
notes: human IgG4 Fc (H4H)
For the molecule B4, in assay [3], the “% max blocking” value came out at 85% and the 50% inhibitory concentration (IC50) was found to be 7.3 nM. In assay [1], the “IC50 (SRE-luc, HEK293/hGFRα3/hRET cells, 100 pM hARTEMIN-mmH)” value came to 2.4 nM.

As usually defined, the IC50 is the concentration that inhibits the measured activity by half.
